Laboratory results reported in paper PMC10724065, “Evolution of a plant growth-regulatory protein interaction specificity” (Nature Plants, 2023).

B1: Arabidopsis thaliana AtSLY1 (yeast bait fusion) [Arabidopsis thaliana] / A. thaliana GAI (yeast prey fusion) [Arabidopsis thaliana] (parent complex)
chain 1: MKRSTTDSDLAGDAHNETNKKMKSTEEEEIGFSNLDENLVYEVLKHVDAKTLAMSSCVSKIWHKTAQDERLWELICTRHWTNIGCGQNQLRSVVLALGGFRRLHSLYLWPLSKPNPRARFGKDELKLTLSLLSIRYYEKMSFTKRPLPESK
chain 2: MKRDHHHHHHQDKKTMMMNEEDDGNGMDELLAVLGYKVRSSEMADVAQKLEQLEVMMSNVQEDDLSQLATETVHYNPAELYTWLDSMLTDLNPPSSNAEYDLKAIPGDAILNQFAIDSASSSNQGGGGDTYTTNKRLKCSNGVVETTTATAESTRHVVLVDSQENGVRLVHALLACAEAVQKENLTVAEALVKQIGFLAVSQIGAMRKVATYFAEALARRIYRLSPSQSPIDHSLSDTLQMHFYETCPYLKFAHFTANQAILEAFQGKKRVHVIDFSMSQGLQWPALMQALALRPGGPPVFRLTGIGPPAPDNFDYLHEVGCKLAHLAEAIHVEFEYRGFVANTLADLDASMLELRPSEIESVAVNSVFELHKLLGRPGAIDKVLGVVNQIKPEIFTVVEQESNHNSPIFLDRFTESLHYYSTLFDSLEGVPSGQDKVMSEVYLGKQICNVVACDGPDRVERHETLSQWRNRFGSAGFAAAHIGSNAFKQASMLLALFNGGEGYRVEESDGCLMLGWHTRPLIATSAWKLSTN
B2: Arabidopsis thaliana AtSLY1 (yeast bait fusion) [Arabidopsis thaliana] / A. thaliana RGA (yeast prey fusion) [Arabidopsis thaliana] (parent complex)
chain 1: B1 chain 1
chain 2: MKRDHHQFQGRLSNHGTSSSSSSISKDKMMMVKKEEDGGGNMDDELLAVLGYKVRSSEMAEVALKLEQLETMMSNVQEDGLSHLATDTVHYNPSELYSWLDNMLSELNPPPLPASSNGLDPVLPSPEICGFPASDYDLKVIPGNAIYQFPAIDSSSSSNNQNKRLKSCSSPDSMVTSTSTGTQIGGVIGTTVTTTTTTTTAAGESTRSVILVDSQENGVRLVHALMACAEAIQQNNLTLAEALVKQIGCLAVSQAGAMRKVATYFAEALARRIYRLSPPQNQIDHCLSDTLQMHFYETCPYLKFAHFTANQAILEAFEGKKRVHVIDFSMNQGLQWPALMQALALREGGPPTFRLTGIGPPAPDNSDHLHEVGCKLAQLAEAIHVEFEYRGFVANSLADLDASMLELRPSDTEAVAVNSVFELHKLLGRPGGIEKVLGVVKQIKPVIFTVVEQESNHNGPVFLDRFTESLHYYSTLFDSLEGVPNSQDKVMSEVYLGKQICNLVACEGPDRVERHETLSQWGNRFGSSGLAPAHLGSNAFKQASMLLSVFNSGQGYRVEESNGCLMLGWHTRPLITTSAWKLSTAAY

Variants of: B1
Test: yeast 2-hybrid; parent: 0.3; read off a plot
With chain 1 MKRSTTDSDLAGDAHNETNKKMKSTEEEEIGFSNLDENLVYEVLKHVDAKTLAMSSCVSKIWHKTAQDERLWELICTRHWTNIGCGQNQLRSVVLALGGFRRLHSLYLWPLSKPNPRARFGKDELELTLSLLSIRYYEKMSFTKRPLPESK [chain 1 K126E] the response was ~19 β-galactosidase units. With chain 1 MKRSTTDSDLAGDAHNETNKKMKSTEEEEIGFSNLDENLVYEVLKHVDAKTLAMSSCVSKIWHKTAQDERLWELICTRHWTNIGCGQNQLRSVVLALGGFRRLHSLYLWPLSKPNPRARFGKDELNLTLSLLSIRYYEKMSFTKRPLPESK [chain 1 K126N] the response was ~51 β-galactosidase units. In the case of chain 1 MKRSTTDSDLAGDAHNETNKKMKSTEEEEIGFSNLDENLVYEVLKHVDAKTLAMSSCVSKIWHKTAQDERLWELICTRHWTNIGCGQNQLRSVVLALGGFRRLHSLYLWPLSKPNPRARFGKDELTLTLSLLSIRYYEKMSFTKRPLPESK [chain 1 K126T], the response is reported as ~24 β-galactosidase units. chain 1 MKRSTTDSDLAGDAHNETNKKMKSTEEEEIGFSNLDENLVYEVLKHVDAKTLAMSSCVSKIWHKTAQDERLWELICTRHWTNIGCGQNQLRSVVLALGGFRRLYSLYLWPLSKPNPRARFGKDELKLTLSLLSIRYYEKMSFTKRPLPESK [chain 1 H104Y] was tested, and the response was ~120 β-galactosidase units.

Variants of: B1
Test: pull-down (IP: His, immunoblot); parent: 1
For chain 1 MKRSTTDSDLAGDAHNETNKKMKSTEEEEIGFSNLDENLVYEVLKHVDAKTLAMSSCVSKIWHKTAQDERLWELICTRHWTNIGCGQNQLRSVVLALGGFRRLYSLYLWPLSKPNPRARFGKDELKLTLSLLSIRYYEKMSFTKRPLPESK [chain 1 H104Y], the ratio to parent was 3.05.

Variants of: B1
Test: yeast 2-hybrid; parent: 0.3; read off a plot
Remark: another data set of the same source
chain 1 MKRSTTDSDLAGDAHNETNKKMKSTEEEEIGFSNLDENLVYEVLKHVDAKTLAMSSCVSKIWHKTAQDERLWELICTRHWTNIGCGQNQLRSVVLALGGFRRLYSLYLWPLSKPNPRARFGKDELKLTLSLLSIRYYEKMSFTKRPLPESK [chain 1 H104Y] was tested, and the response was ~110 β-galactosidase units. With chain 1 MKRSTTDSDLAGDAHNETNKKMKSTEEEEIGFSNLDENLVYEVLKHVDAKTLAMSSCVSKIWHKTAQDERLWELICTRHWTNIGCGQNQLRSVVLALGGFRRLFSLYLWPLSKPNPRARFGKDELKLTLSLLSIRYYEKMSFTKRPLPESK [chain 1 H104F] the response was ~100 β-galactosidase units.

Variants of: B1
Test: yeast 2-hybrid; parent: 0.35; read off a plot
In the case of chain 1 MKRSTTDSDLAGDAHNETNKKMKSTEEEEIGFSNLDENLVYEVLKHVDAKTLAMSSCVSKIWHKTAQDERLWELICTRHWTNIGCGQNQLRSVVLALGGFRRLYSLYLWPLSKPNPRARFGKDELKLTLSLLSIRYYEKMSFTKRPLPESK [chain 1 H104Y], the response is reported as ~99 β-galactosidase units.

Variants of: B1
Test: pull-down (IP: His, immunoblot); without GST-GID1C, without GA3 (GAI in A Form); parent: 1
With chain 1 MKRSTTDSDLAGDAHNETNKKMKSTEEEEIGFSNLDENLVYEVLKHVDAKTLAMSSCVSKIWHKTAQDERLWELICTRHWTNIGCGQNQLRSVVLALGGFRRLYSLYLWPLSKPNPRARFGKDELKLTLSLLSIRYYEKMSFTKRPLPESK [chain 1 H104Y] the ratio to parent was 5.65.

Variants of: B1
Test: pull-down (IP: His, immunoblot); with GST-GID1C, with GA3 (GAI in A + A' Forms); parent: 2.41
In the case of chain 1 MKRSTTDSDLAGDAHNETNKKMKSTEEEEIGFSNLDENLVYEVLKHVDAKTLAMSSCVSKIWHKTAQDERLWELICTRHWTNIGCGQNQLRSVVLALGGFRRLYSLYLWPLSKPNPRARFGKDELKLTLSLLSIRYYEKMSFTKRPLPESK [chain 1 H104Y], the response is reported as 11.8 relative anti-MBP band intensity (SLY1 without GST-GID1C and GA3 = 1.00).

Variants of: B2
Test: yeast 2-hybrid; read off a plot
For chain 1 MKRSTTDSDLAGDAHNETNKKMKSTEEEEIGFSNLDENLVYEVLKHVDAKTLAMSSCVSKIWHKTAQDERLWELICTRHWTNIGCGQNQLRSVVLALGGFRRLHSLYLWPLSKSNPRARFGKDELKLTLSLLSIRYYEKMSFTKRPLPESK [chain 1 P114S], the response was ~3.6 β-galactosidase units. For chain 1 MKRSTTDSDLAGDAHNETNKKMKSTEEEEIGFSNLDENLVYEVLKHVDAKTLAMSSCVSKIWHKTAQDERLWELICTRHWTNIGCGQNQLRSVVLALGGFRRLHSLYLWPLSKLNPRARFGKDELKLTLSLLSIRYYEKMSFTKRPLPESK [chain 1 P114L], the response was ~1.5 β-galactosidase units. For chain 1 E138K, the response was ~3.7 β-galactosidase units. With chain 1 MKRSTTDSDLAGDAHNETNKKMKSTEEEEIGFSNLDENLVYEVLKHVDAKTLAMSSCVSKIWHKTAQDERLWELICTRHWTNIGCGQNQLRSVVLALGGFRRLHSLYLWPLSKPNPRARFGKDELKLALSLLSIRYYEKMSFTKRPLPESK [chain 1 T128A] the response was ~24 β-galactosidase units. With chain 1 MKRSTTDSDLAGDAHNETNKKMKSTEEEEIGFSNLDENLVYEVLKHVDAKTLAMSSCVSKIWHKTAQDERLWELICTRHWTNIGCGQNQLRSVVLALGGFRRLHSLYLWPLSKPNPRARFGKDELKLSLSLLSIRYYEKMSFTKRPLPESK [chain 1 T128S] the response was ~1.3 β-galactosidase units. chain 1 MKRSTTDSDLAGDAHNETNKKMKSTEEEEIGFSNLDENLVYEVLKHVDAKTLAMSSCVSKIWHKTAQDERLWELICTRHWTNIGCGQNQLRSVVLALGGFRRLHSLYLWPLSKPNPRARFGKDELNLTLSLLSIRYYEKMSFTKRPLPESK [chain 1 K126N] was tested, and the response was ~3.9 β-galactosidase units. chain 1 MKRSTTDSDLAGDAHNETNKKMKSTEEEEIGFSNLDENLVYEVLKHVDAKTLAMSSCVSKIWHKTAQDERLWELICTRHWTNIGCGQNQLRSVVLALGGFRRLHSLYLWPLSKPNPRARFGKDELTLTLSLLSIRYYEKMSFTKRPLPESK [chain 1 K126T] was tested, and the response was ~0.6 β-galactosidase units. In the case of chain 1 MKRSTTDSDLAGDAHNETNKKMKSTEEEEIGFSNLDENLVYEVLKHVDAKTLAMSSCVSKIWHKTAQDERLWELICTRHWTNIGCGQNQLRSVVLALGGFRRLYSLYLWPLSKPNPRARFGKDELKLTLSLLSIRYYEKMSFTKRPLPESK [chain 1 H104Y], the response is reported as ~55 β-galactosidase units.
